Results on one protein are retold here after PMC2773002, “Differential Role of Human Choline Kinase α and β Enzymes in Lipid Metabolism: Implications in Cancer Onset and Treatment” (PLoS ONE, 2009).

Substrate in series [1]: NCCO
Put plainly: Michaelis-Menten kinetics (Km), radiolabelled substrate, extracts of E. coli expressing the recombinant enzyme. Conditions: ATP, MgCl2. In kind it is biochemical, Homo sapiens.

Substrate in series [2]: C[N+](C)(C)CCO
The series is described as above. In kind it is biochemical, Homo sapiens. As to conditions: ATP, MgCl2.

B1: ChoKβ (choline kinase beta, ChoKβ1) (Homo sapiens) (protein)
chain: AAEATAVAGSGAVGGCLAKDGLQQSKCPDTTPKRRRASSLSRDAERRAYQWCREYLGGAWRRVQPEELRVYPVSGGLSNLLFRCSLPDHLPSVGEEPREVLLRLYGAILQGVDSLVLESVMFAILAERSLGPQLYGVFPEGRLEQYIPSRPLKTQELREPVLSAAIATKMAQFHGMEMPFTKEPHWLFGTMERYLKQIQDLPPTGLPEMNLLEMYSLKDEMGNLRKLLESTPSPVVFCHNDIQEGNILLLSEPENADSLMLVDFEYSSYNYRGFDIGNHFCEWVYDYTHEEWPFYKARPTDYPTQEQQLHFIRHYLAEAKKGETLSQEEQRKLEEDLLVEVSRYALASHFFWGLWSILQASMSTIEFGYLDYAQSRFQFYFQQKGQLTSVHSSS
notes: human ChoKβ1 expressed in E. coli DH5α (extracts)
Broadly, the Km is the substrate concentration at which the rate is half of its maximum. On to B1, for which the Km in series [1] was determined as 2010 µM; in series [2] it was 570 µM.
